Reference: patent US20210252159A1, “CONJUGATES OF CARTILAGE-HOMING PEPTIDES” (priority 2018, published 2021)
Like-named read-outs stand apart in the source and are kept apart here. Positions of bridges follow the written chain, without caps; N, C: chain ends. Residues, ends and D or L forms follow the SMILES beside them. *: point of attachment. X1 = CC(CCC(C)C(=O)*)C(=O)OCC(=O)[C@@]1(O)[C@H](C)C[C@H]2[C@@H]3CCC4=CC(=O)C=C[C@]4(C)[C@@]3(F)[C@@H](O)C[C@@]21C

How the values were obtained:
[1] = Hydrolysis assay of peptide-drug conjugates in human plasma (free Dex by LC/MS); format: in vitro ADME; conditions: 37° C., release of free Dex, time points to 32 hr, read-out: Half-life (hours) as measured in the hydrolysis experiments (converted)
Procedure: In order to determine hydrolysis rates, conjugates can be diluted in PBS, rat plasma, or human plasma and incubated at 37 degrees. Samples can be taken at designated time-points (e.g., 1, 2, 3, 5, 10, 15, 20, 25, 30, 45, 60, or 90 minutes and/or hours after administration). Internal standards such as triamcinolone acetonide (TAA) can be added as an internal standard, and then active agent/TAA can be extracted using acetonitrile, for example. The samples can be dried down, reconstituted, and analyzed by LC/MS. Data can be normalized using Dex AUC/TAA AUC. Percent hydrolysis can be calculated using the average ratio for active agent AUC/TAA AUC at a time point of maximal drug release. A general method can include using a lyophilized, purified peptide-drug conjugates reconstituted in DMSO following production to generate stock solution at 20 mg/mL. Each conjugate stock can be brought to 0.25 mg/mL in each hydrolysis condition (1×DPBS, human plasma and rat plasma) in triplicate and rocked at 37° C. To quantitate free active agent, 100 μl of the hydrolyzed conjugate solution can be transferred into 1 mL acetonitrile at 4° C. at which time all plasma proteins and intact conjugates can precipitate. This can be performed repeatedly to generate a series of time points (0 hr, 0.5 hr, 1 hr, 2 hr, 4 hr, 6 hr, 8 hr, 24 hr, 32 hr). The acetonitrile solution can be spun at 17,000 g for 5 minutes, and the supernatant removed and added to a 96 well block. The pellet can then be resuspended in 500 μl acetonitrile and re-pelleted as before. The supernatant can be removed and added to the same well in the block. Samples can be prepared for analysis by drying under a nitrogen stream followed by reconstitution in 110 μl 45:55 ACN:Citrate 10 mM pH 5.5. […] Quantification of free active agent (or drug) can be achieved through integration of active agent peaks of the TIC. […]
To quantitate free dexamethasone (Dex), 100 μl of the hydrolyzed conjugate solution was transferred into 1 mL acetonitrile at 4° C. at which time all plasma proteins and intact conjugates precipitated. […]

[2] = Hydrolysis assay of peptide-drug conjugates in PBS (free Dex by LC/MS); format: physicochemical; conditions: 37° C.
Procedure: In order to determine hydrolysis rates, conjugates can be diluted in PBS, rat plasma, or human plasma and incubated at 37 degrees. Samples can be taken at designated time-points (e.g., 1, 2, 3, 5, 10, 15, 20, 25, 30, 45, 60, or 90 minutes and/or hours after administration). Internal standards such as triamcinolone acetonide (TAA) can be added as an internal standard, and then active agent/TAA can be extracted using acetonitrile, for example. The samples can be dried down, reconstituted, and analyzed by LC/MS. Data can be normalized using Dex AUC/TAA AUC. Percent hydrolysis can be calculated using the average ratio for active agent AUC/TAA AUC at a time point of maximal drug release. A general method can include using a lyophilized, purified peptide-drug conjugates reconstituted in DMSO following production to generate stock solution at 20 mg/mL. Each conjugate stock can be brought to 0.25 mg/mL in each hydrolysis condition (1×DPBS, human plasma and rat plasma) in triplicate and rocked at 37° C. To quantitate free active agent, 100 μl of the hydrolyzed conjugate solution can be transferred into 1 mL acetonitrile at 4° C. at which time all plasma proteins and intact conjugates can precipitate. This can be performed repeatedly to generate a series of time points (0 hr, 0.5 hr, 1 hr, 2 hr, 4 hr, 6 hr, 8 hr, 24 hr, 32 hr). The acetonitrile solution can be spun at 17,000 g for 5 minutes, and the supernatant removed and added to a 96 well block. The pellet can then be resuspended in 500 μl acetonitrile and re-pelleted as before. The supernatant can be removed and added to the same well in the block. Samples can be prepared for analysis by drying under a nitrogen stream followed by reconstitution in 110 μl 45:55 ACN:Citrate 10 mM pH 5.5. To ensure optimal recovery the block can be shaken via plate shaker at 7,000 rpm for 5 minutes during the reconstitution step. Prior to LC/MS the samples can be transferred to a 96 well plate and centrifuged at 6,500 g for 15 minutes. Analysis can be performed on an Agilent 1260 Infinity series HPLC with inline 6120 single quad MS using acetonitrile, water (+0.1% TFA) gradient (shown below) on an InfinityLab Poroshell SB-C18 column. Quantification of free active agent (or drug) can be achieved through integration of active agent peaks of the TIC.
Lyophilized, purified peptide-drug conjugates were reconstituted in DMSO following production to generate stock solution at 20 mg/mL. Each conjugate stock was brought to 0.25 mg/mL in each hydrolysis condition (1×DPBS, human plasma and rat plasma) in triplicate and rocked at 37° C.
To quantitate free dexamethasone (Dex), 100 μl of the hydrolyzed conjugate solution was transferred into 1 mL acetonitrile at 4° C. at which time all plasma proteins and intact conjugates precipitated. This was performed repeatedly to generate a series of time points (0 hr, 0.5 hr, 1 hr, 2 hr, 4 hr, 6 hr, 8 hr, 24 hr, 32 hr). The corticosteroid triamcinolone acetonide (25 μl, 0.1 mg/mL in 45:55 ACN:Citrate 10 mM pH 5.5) was supplemented into the acetonitrile solution as an internal standard. The acetonitrile solution was spun at 17,000 g for 5 minutes, and the supernatant removed and added to a 96 well block. The pellet was resuspended in 500 μl acetonitrile and re-pelleted as before. The supernatant was removed and added to the same well in the block.
Samples were prepared for analysis by drying under a nitrogen stream followed by reconstitution in 110 μl 45:55 ACN:Citrate 10 mM pH 5.5. To ensure optimal recovery the block was shaken via plate shaker at 7,000 rpm for 5 minutes during the reconstitution step. Prior to LC/MS the samples were transferred to a 96 well plate and centrifuged at 6,500 g for 15 minutes. Analysis was performed on an Agilent 1260 Infinity series HPLC with inline 6120 single quad MS using a gradient of 0.1% TFA in acetonitrile (solvent B), and 0.1% TFA (aq) (solvent A) gradient (shown below) on an InfinityLab Poroshell SB-C18 column. […]

[3] = system: CIA rats; format: in vivo; conditions: 0.05 mg/kg on study day 0 and day 1
Procedure: A study was conducted in CIA rats to address the following: 1) functionality and duration of effect for peptide(SEQ ID NO: 105)-carbamate-Dex at 0.2 mg/kg as compared to Dex alone at the same dose; 2) functionality and duration of effect for peptide(SEQ ID NO: 105)-DMA-Dex at 0.05 mg/kg as compared to Dex alone at the same dose; 3) systemic markers of Dex exposure in rats treated with each PDC and Dex at their respective doses (FIG. 16B-FIG. 16G).
CIA was induced as described above in EXAMPLE 21. Rats were enrolled in the study following onset of arthritis in at least one ankle and randomly assigned into one of five treatment groups (vehicle; peptide-carbamate 0.2 mg/kg; Dex 0.2 mg/kg; peptide-DMA conjugate 0.05 mg/kg; Dex 0.05 mg/kg) with 5 rats per group. Treatment was administered on study day 0 and study day 1 and rats were euthanized on study day 7. The primary read-out in this cohort was change in ankle diameter during and after treatment, as a measure of functionality and duration of effect. […] The primary read-out for this cohort was measures of systemic exposure to Dex which included thymus weight, spleen weight, total white blood cell counts, lymphocyte counts, and change in body weight.

[4] = system: CIA rats; format: in vivo
Procedure: Ankle diameter measurements were recorded daily starting on induction day 9 and continuing for the duration of the study. […] Each treatment was administered on the day of enrollment (study day 0) and repeated daily for 7 days (study day 6). Rats were euthanized 3 h after the final dose and blood and organs were collected for testing.

[5] = 0.05 mg/kg daily for 7 days, study day 6

CC[C@H](C)[C@@H]1NC(=O)[C@@H]2CSSC[C@H](NC(=O)[C@H](CCCNC(=N)N)NC(=O)[C@@H](NC(=O)[C@H](CC(N)=O)NC(=O)[C@@H](NC(=O)[C@@H]3CCCN3C(=O)[C@@H](NC(=O)CNC(=O)[C@H](CO)NC(=O)CNC(=O)C(C)CCC(C)C(=O)OCC(=O)[C@@]3(O)[C@H](C)C[C@H]4[C@@H]5CCC6=CC(=O)C=C[C@]6(C)[C@@]5(F)[C@@H](O)C[C@@]43C)C(C)C)[C@@H](C)CC)C(C)C)C(=O)N[C@@H](CCCNC(=N)N)C(=O)NCC(=O)N[C@@H](CO)C(=O)N[C@@H](CCCNC(=N)N)C(=O)N[C@@H](CC(=O)O)C(=O)N[C@H]3CSSC[C@H](NC(=O)[C@H](CCCNC(=N)N)NC(=O)[C@H](CO)NC(=O)[C@H](CC(N)=O)NC1=O)C(=O)N[C@@H](Cc1c[nH]cn1)C(=O)N[C@H](C(=O)N[C@H](C(=O)N1CCC[C@H]1C(=O)O)[C@@H](C)O)CSSC[C@H](NC(=O)[C@@H]1CCCN1C(=O)[C@H](CC(=O)O)NC(=O)[C@H](CC(C)C)NC3=O)C(=O)N[C@@H](CCCNC(=N)N)C(=O)N[C@@H](CCCNC(=N)N)C(=O)N[C@@H](C)C(=O)NCC(=O)N[C@@H](CCSC)C(=O)N[C@@H](CCCNC(=N)N)C(=O)N[C@@H](Cc1ccccc1)C(=O)NCC(=O)N[C@@H](CCCNC(=N)N)C(=O)N2 (some centres unmarked) [Compound 27, peptide(SEQ ID NO: 105)-[dimethyladipic acid]-Dex] (X1-GSGVPINVRCRGSRDCLDPCRRAGMRFGRCINSRCHCTP-OH; disulfide 10-30, 16-35, 20-37 (inferred); C-terminus assumed)
half-life at 0.25 mg/mL [1]: 22.4 h
Half-life (hours) as measured in the hydrolysis experiments ([2]; PBS, release of free Dex, time points to 32 hr): undetectable ≤32
Hydrolysis half-life ([2]; in PBS, free Dex): No Dex release ≤32 h
ankle diameter as compared to vehicle; magnitude and duration of effect [3]: significant reduction
plasma lymphocyte counts as compared to DexSP ([4]; 0.05 mg/kg): significantly higher
spleen weight as compared to DexSP ([4]; 0.05 mg/kg): significantly higher
plasma lymphocyte counts as compared to vehicle [4, 5]: significantly reduced
spleen weight as compared to vehicle [4, 5]: significantly reduced
thymus weight as compared to vehicle [4, 5]: significantly reduced
ankle inflammation ([4]; highest dose of 0.05 mg/kg daily for 7 days): effective at reducing ankle inflammation
ankle inflammation ([4]; lower doses (0.001, 0.005, 0.01 mg/kg) daily for 7 days): indistinguishable from vehicle
